Data: the RNAGym collection of RNA variant scans (doi:10.7554/elife.80360)

B1: HDV Ribozyme (parent)
chain: GGCCGGCAUGGUCCCAGCCUCCUCGCUGGCGCCGGCUGGGCAACAUUCCGAGGGGACCGUCCCCUCGGUAAUGGCGAAUGGGACCCA

Variants of: B1
Assay: self-cleavage, relative activity (ratio to wild type); higher = more cleavage; co-transcriptional

Variant	self-cleavage
C18A C57G	0.208
C19U A87G	0.107
C61A A87G	1
C66A G80A	0.54
C24G G68U	0.0191
U69C A71G	0.974
C21U G59U	0.288
U9C A87C	0.813
G10A U65C	0.769
G52U G68U	0.415
C44A C86G	0.787
C66A G81C	0.163
G59U G80U	0.19
C15G G39A	0.341
C32A G59U	0.095
C30G A71C	0.0554
C24A A45U	0.541
G10U C21A	0.0332
G11C A42U	0.0536
G40A G50C	0.92
C22U U23A	0.845
G38A U47C	0.0767
G10U C61G	0.635
G29U C62U	0.0804

Variant	self-cleavage
C13G A56U	0
C33A C61U	0.265
G73A A87U	0.803
C41U C61U	0.946
G10C G35C	0.102
G40U G53U	0.75
C7G C85G	0.237
G28C U47G	0.0536
G6C C84U	0.0573
G1A G82C	0.133
G2U G28U	0.0246
G34C G80U	0.203
G17U G80A	0.272
G59A C85G	1.13
C21G G28C	0.0755
C14G C57U	0.665
G31C G54U	0.332
A8U G76C	0.965
C18G G39U	0.0554
G11U U46A	0.18
A16U A43G	0.453
A43C G82U	0.0545
G10U C36G	0.0615
U27G A56U	0.692

Variant	self-cleavage
C57U U60G	0.702
A8U C14U	0.864
C26A U79A	0.997
U20A G68A	0.0504
C48G A70C	0.6
G6A A78U	0.0297
C4A C15G	0.166
G29A C84U	0.133
G39A G80U	0.178
U47C G54C	0.554
U69A C85A	0.767
C36G U46A	0.415
G40U G82A	0.256
C7U G40C	0.166
C36A U60C	0.166
G39U G50U	0.627
C24G G80C	0.271
C30U G53C	0.554
C48A A83G	0.791
C18U G25A	0.104
U47G G55A	0.939
G10C U69A	0.831
G35C C57U	0.185
G17U G52A	0.509

Variant	self-cleavage
C21G A45C	0.18
A77G G80U	0.244
A78G C85A	0.86
A56U G67U	0.988
C14G C75U	0.155
A16U C49A	0.895
G11U C22G	0
C48A G74A	0.7
C48G G82A	0.403
C24A C64G	0.749
G31A G76A	0.606
G38U A83C	0.0773
G73A U79A	0.231
U9C U20C	0
U12C G31U	0.0386
A42G C86G	0.597
C63U A71C	1.15
C13U G73U	0.0875
G50C G67C	0.399
C32A A45G	0.198
G74C A87C	0.212
G1A C84U	0.229
G34A U79G	0.0875
A16G A42G	0.504

Variant	self-cleavage
C19U U47C	0.111
A43U U47A	0.271
G34A C75G	0.203
C22G C62A	0.106
C4G G73U	0.086
G10U C75A	0.0213
C66A C84A	0.831
C7A C75G	0.225
G54U G55C	0.953
A16C U79G	0.692
U12A G73A	0.123
G40A A87G	0.959
G10C C19G	0.0811
C18A G81U	0.0817
C3G U9G	0.789
G59C U72A	0.773
G1C C33G	0
U20G U23G	0.185
C15A G74A	0.174
A70C A87U	1.04
G35U G59C	0.7
C33U C48G	1.05
G31C U37C	0.0707
G76C G80C	0.093

Variant	self-cleavage
C44U C84G	0.404
C21G A56G	0.0791
U9A A83G	0.67
G31A A78U	0.175
C33A G67A	0.273
G54C U65A	0.721
C3G C13G	0.0504
A8G C57U	1.16
C7U G52U	0.562
G11A C18U	0.12
G28U U60C	0.0755
U23A G53C	1.12
C22G G74U	0.0841
C22U C62G	0.431
G25A G50C	0.181
A42C	0.333
G34A A78C	0.157
C3G C57U	0.75
G5U C61U	0.399
C7A U37G	0.246
G17A U79A	0.627
G54U U72C	0.554
C3U A70C	0.566
C26G U27G	0.208

Variant	self-cleavage
G67A C75U	0.189
A8G G38C	0.138
C13G G55C	0.135
C22U G54A	0.709
G35A A78G	0.138
A45C G54C	0.653
U27G G39A	0.196
G68A U79C	0.233
C19G G59C	0.141
G50C C62U	0.939
G50U C58G	0.89
A45G C57U	1.11
G29A A45C	0
C36G G50A	0.109
C49A G59U	0.945
C33A A77C	0.0707
U12A C13G	0
C44U G80C	0.242
C26U C41U	1.06
C30A G73A	0.237
G53A U72G	0.429
C18A C62G	0.135
C41G C86A	1.14
